Tests used:
[1] = target: T1, recombinant SARS-CoV-2 RBD protein (wild-type) (SARS-CoV-2; human, UniProt P0DTC2 306-543); experiment: ELISA (FIG. 18E)
T1 construct: range 306-543

[2] = target: T1, recombinant SARS-CoV-2 RBD protein …; experiment: ELISA (FIG. 18B)
[3] = target: T1, recombinant SARS-CoV-2 RBD protein …; experiment: ELISA (FIG. 18C)
[4] = target: T1, recombinant SARS-CoV-2 RBD protein …; experiment: ELISA (FIG. 18A)

B1: E-3G9 antibody (format in FIG. 18 not stated) (antibody, V domains shown)
VH: QMQLVQSGAEVKKPGASVKVSCKASGHTITSYYMHWVRQAPGQGLEWMGIINPSGGSTSYAQKFQGRVTMTRDTSTSTVYMELSSLRSEDTAVYYCAREGVWDSSGYSSFDYWGQGTLVTVSS
VL: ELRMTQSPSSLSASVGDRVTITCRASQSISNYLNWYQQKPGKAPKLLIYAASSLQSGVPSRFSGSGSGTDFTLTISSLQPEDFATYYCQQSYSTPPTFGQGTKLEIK
[1]
  binding result: binds

B2: A-2F1 antibody (format in FIG. 18 not stated) (antibody, V domains shown)
VH: QVQLVQSGGGLIQPGGSLRLSCAASGVTVSSNYMSWVRQAPGKGLEWVSVIYSGGSTFYADSVKGRFTISRDNSKNTLYLQMNSLRAEDTAVYYCARDLMEAGGMDVWGQGSTVTVSS
VL: ELALTQPPSASGSPGQSVTISCTASSSDIGASNHVAWYQQNPGKAPKLMIYGVSGRPSGVPDRFSGSKSGNTASLTVSGLQAEDEADYYCSSYAGSNILIFGGGTKLTVL
[2]
  binding result: binds

B3: A-2H4 antibody (format in FIG. 18 not stated) (antibody, V domains shown)
VH: QMQLVESGGGLVQPGRSLRLSCAASGFTFSVYGMHWVRQAPGKGLEWVAVISYDGSNKYYADSVKGRFSISRDNSKNTLYLQMNSLRGEDTAVYYCAKGGPRPVVKAYGELDYYGMDVWGQGTTVTVSS
VL: ELALTQPASVSGSPGQSITISCTGTSSDIGGYEYVSWYQQHPGKAPKLIIYDVRDRPSGISNRFSGSKSGNTASLIISSLQAGDEADYYCFSYTSSGTYVFGSATKVTVL
[3]
  binding result: binds

B4: A-1H4 antibody (format in FIG. 18 not stated) (antibody, V domains shown)
VH: EVQLVESGGGLVQPGRSLRLSCAASGFTVSSNYMSWVRQAPGKGLEWVSGIYSGGSTYYADSVKGRFTISRDNSKNTLYLQMNSLRAEDTAVYYCARDLQEAGAFDIWGQGTMVTVSS
VL: ELQLTQSPSFLSASVGDRVTITCRASQGISSYLAWYQQKPGKAPKLLIYAASTLQSGVPSRFSGSGSGTEFTLTISSLQPEDFATYYCQQLNSYPRLTFGGGTKVEIK
[4]
  binding result: binds
